These results are taken from patent publication US20250137032A1, “TWO-COMPONENT SYSTEMS FOR USE IN CELL-FREE GENE EXPRESSION” (priority 2023, published 2025).

Entries after “also recorded” stand apart in the source; their conditions may differ.

The experiment deals with T1, NarX (Escherichia coli, UniProt P0AFA2, T450I/V366A).
T1 construct: All genes were; made in house; host or cells: cell-free expression in situ, myTXTL E. coli extract (Arbor Biosciences), with synthetic lipid vesicles
In words: Cell-free NarX-L system encapsulated in giant unilamellar vesicles. The class given is biochemical, E. coli. Particulars: GUV-encapsulated NarX-L, nitrate dependent signaling (FIG. 16). From the text: Over the last decade, many promising cell-free systems have been developed, enabling the delivery and sensing of a wide array of ligands in non-ideal environments. Cell-free systems have been encapsulated and administered to mice (47), lyophilized and used in resource limited settings (6, 7), and integrated into wearable materials to sense environmental contaminants (8). Towards the goal of creating cell-mimetic particles which can sense environmental stimuli in complex environments, such as the body, we encapsulated our cell-free system into giant unilamellar vesicles using the emulsion transfer method (FIG. 5A). We encapsulated cell-free extract containing plasmids encoding NarX, NarL, and the downstream protein (luciferase or mEGFP) into membranes composed of 1 POPC: 1 cholesterol and a rhodamine conjugated lipid. We hypothesized that by encapsulating cell-free reaction components into vesicles, NarX could insert into membranes and initiate signaling in response to exogenously added nitrate. […]
For samples containing the luciferase plasmid, 0.5 μL of NanoGlo Luciferase substrate was added to the reaction, and reactions were read on a Molecular Devices Spectra Max i3 plate reader. […] Images were analyzed using the Nikon NIS software.

T1 sequence (P0AFA2 other isoform, or with tags, fused parts or gaps V366A/T450I): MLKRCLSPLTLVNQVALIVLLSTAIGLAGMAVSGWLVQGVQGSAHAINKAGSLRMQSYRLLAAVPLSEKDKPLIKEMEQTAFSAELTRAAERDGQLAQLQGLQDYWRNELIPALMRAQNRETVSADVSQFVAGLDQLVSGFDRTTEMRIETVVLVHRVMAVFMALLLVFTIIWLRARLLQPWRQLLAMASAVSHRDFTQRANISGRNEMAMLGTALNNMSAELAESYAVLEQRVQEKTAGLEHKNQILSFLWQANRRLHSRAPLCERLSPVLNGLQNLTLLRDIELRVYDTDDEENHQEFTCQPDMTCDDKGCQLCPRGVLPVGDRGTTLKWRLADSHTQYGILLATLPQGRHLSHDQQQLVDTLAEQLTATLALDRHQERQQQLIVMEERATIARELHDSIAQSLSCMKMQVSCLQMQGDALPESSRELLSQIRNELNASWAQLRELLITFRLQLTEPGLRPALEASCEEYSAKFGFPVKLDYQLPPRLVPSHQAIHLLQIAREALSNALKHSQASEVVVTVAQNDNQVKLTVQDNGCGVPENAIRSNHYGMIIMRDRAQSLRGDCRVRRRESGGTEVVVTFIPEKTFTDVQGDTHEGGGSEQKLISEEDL

B1: Proteinase K: protease added to the outside of vesicles (protein, UniProt P06873 106-384, looked up)
Proteinase K: AAQTNAPWGLARISSTSPGTSTYYYDESAGQGSCVYVIDTGIEASHPEFEGRAQMVKTYYYSSRDGNGHGTHCAGTVGSRTYGVAKKTQLFGVKVLDDNGSGQYSTIIAGMDFVASDKNNRNCPKGVVASLSLGGGYSSSVNSAAARLQSSGVMVAVAAGNNNADARNYSPASEPSVCTVGASDRYDRRSSFSNYGSVLDIFGPGTSILSTWIGGSTRSISGTSMATPHVAGLAAYLMTLGKTTAASACRYIADTANKGDLSNIPFGTVNLLAYNNYQA
Regarding B1, the “effect on encapsulated TCS signaling when added outside of vesicles” value is reported as “signaling was inhibited; also recorded: is inhibited”.
